Laboratory results as given in US20230095569A1 (ANTENGENE BIOLOGICS, published 2023).
Changes are numbered by the printed parent chain.

B1: Ab09 (antibody, V domains shown)
VH: EVQLQQSGPELVKPGTSVKMSCKASGYTFTDYNMHWVKLSHGKSLEWIGYINPNNGGTIYNQRFKGKATLTVNKSSRTAYMDLRSLTSEDSAVYYCARQGYYGNSMDYWGQGNSVTVSS
VL: DIVMTQSPSSLTVTPGERVTMSCKSSQSLLNGGNQRNYLTWYQQKPGQPPKLLIYWASTRESGVPDRFAGSGSGTDFTLTISRVQAEDLSFYYCQNSYFYPFTFGSGTKLDLR
notes: mouse monoclonal (hybridoma)
B2: Ab12 (antibody, V domains shown)
VH: EVMLVESGGGLVKPGGSLKLSCAASGFTFSSYTMSWVRQTPEKRLEWVATIIGGYGNTYYADSVKGRFTISRDSAKNTLYLQMLSLRSEDTALYYCTRLGQTQRNAMDYWGQGTSVTVSS
VL: DILMTQSPSSLSVSAGEKVTMSCKSSQSLLNSGNQRNYLAWYQQKPGQPPKLLIYGASTRESGVPDRFTGSGSGTDFTLTISSVQAEDLAVYYCQNDYYYPLTFGAGTKLELK
notes: mouse monoclonal (hybridoma)
B3: Ab13 (antibody, V domains shown)
VH: EVRLVESGGGLVKPGGSLKLSCAGSGFTFSSYTMSWVRQTPEKRLEWVATITIGVNIYYLDSVKGRFTISRDNAKNTLYLQMNSLRSEDTALYYCTRLGQTQRNAMDYWGQGTSVTVSS
VL: B2 VL with L3V, S9T, S22T, R36K, Q44E, D97N, Y98H, Y99F
notes: mouse monoclonal (hybridoma)
B4: Ab15 (antibody, V domains shown)
VH: EVMLVESGGDLVKPGGSLKLSCAASGFTFSTYTMSWVRQTPEKRLEWVATIVGGGGYTYYLDSVKGRFTISRDNAKNTLYLQMISLRSEDTALYYCARMGLTQRNALDYWGQGTSITVSS
VL: B2 VL with L3V, A15E, M21L, S22N, L30F, R36K, S73F, Y98H, Y99T, T108A
notes: mouse monoclonal (hybridoma); also called mAb Ab15
B5: Ab16 (antibody, V domains shown)
VH: EVMLVESGGGLVKPGGSLKLSCAASGFTFNSYTMSWVRQTPEKRLEWVATITVIGGNTYYLDSVKGRFTISIDNGKNTLYLQMSSLRSEDTALYYCARMGQTQRNAMDYWGQGTSVTVSS
VL: B2 VL with L3V, E17Q, S22R, R36K, P46L, T69S, S82T, Y99S, Y100F
notes: mouse monoclonal (hybridoma)
B6: Ab11 (antibody, V domains shown)
VH: EVMLVESGGDLVKPGGSLKLSCAASGFTFSRYTMSWVRQTPEKRLEWVATVSVGSGNTYYLDSVKGRFTISRDNAKNTLFLQMNSLRSEDTALYYCTRLGQTQRNAVDYWGQGTSVTVSS
VL: DIVMTQSPSFLSVSAGEKVTMSCKSSQSLFNGGNQKNYLAWYQQKPGQPPKLLIYGASTRDSGVPDRFTGSGSGTDFTLTISNVQAEDLAIYFCQNDHSFPLTFGAGTKLELK
notes: mouse monoclonal (hybridoma)
B7: Ab19 (antibody, V domains shown)
VH: B6 VH with T28S, N84S, T97A, L99M
VL: DIVMTQSPSSLSVSAGEKVTMSCKSSQSLFNSGNQKNYLAWYQQKPGQPPKLLIYGASTRESGVPDRFTGSGSGTDFTLTISNVQAEDLAVYLCQNDHSFPLTFGAGTKLEL
notes: mouse monoclonal (hybridoma)
B8: Ab35 (antibody, V domains shown)
VH: DVFLQESGPGLVKPSQSLSLTCTVTGYSITSDYAWNWIRQFPGNKLEWVTYIGYSGTTSYNPSLKSRISITRDTSKNQFFLQLNSVSTEDTATYYCVRRGSYYGSYWFFDVWGAGTTVTVSS
VL: QVVLSQSPAILSASPGEKVTMTCRASSSVSYMHWYQQKPGSSPKPWIYATSNLASGVPPHFSGSGSGTSYSLTISRVEAEDAATYYCQQWTSNPPTFGGGTKLEIK
notes: mouse monoclonal (hybridoma)
B9: Ab02 (antibody, V domains shown)
VH: QVQLKESGPGLVAPSQSLSITCTVSGFSLTSYAINWVRQPPGKGLEWLGVIWTGGGTNYNSALKSRLSINKDNSKSQVFLKMNSLQTDDTARYYCARFYDGYYSWFAYWGQGTLVTVSA
VL: DIVMTQSHKFMSTSVGDRVSITCKASQDVGTAVTWYQQKPGQSPKLLIYWASTRHTGVPDRFTGSGSGTDFTLTISNVQSEDLADYFCQQYSSYPFTFGSGTKLEIK
notes: mouse monoclonal (hybridoma)
B10: Ab07 (antibody, V domains shown)
VH: EVQLQQSGPELVKPGASVKISCKASGYSFTDYFMNWVKQSHGKGLEWIGRINPYNGDTFYNQKFKGKATLTVDKSSSTAHMELLSLTSEDFAVYYCALYDGYWGAFVYWGQGTLVTVSA
VL: DIQMTQSPASLSVFVGETVTITCRASENIYSNLAWYQQKQGKSPQLLVYAATNLADGVPSRFSGSGSGTQYSLKINSLQSEDFGSYYCQHFWGTPLTFGAGTKLELK
notes: mouse monoclonal (hybridoma)
B11: Ab05 (antibody, V domains shown)
VH: DVKLVESGEDLVKPGGSLKLSCAASGFTFSNYAMSWVRQTPEKRLEWVAYVSSGGDYIYYADTVKGRFIISRDNARNTLYLQMNSLRSEDTAMYYCARVYFGNSLDYWGQGTTLTVSS
VL: DIVMTQSPSSLTVTAGEKVTLSCKSSQSLLNGGNQKNYLTWYQQRPGQPPKLLIYWASTRESGVPDRFTGSGSGTDFTLIISSVQAEDLAVYYCQNDYYYPWTFGGGTKLEIK
notes: mouse monoclonal (hybridoma)
B12: Ab08 (antibody, V domains shown)
VH: QVQLQQPGAELVKPGASVKLSCKASGYTFTSYLLHWVKQRPGQGLEWIGMIHPNGGSTNYNEKFKTKATLTVDKSSSTAYMQLSSLTSEDSAVYYCAPVYFGNSFAYWGQGTLVTVSA
VL: B11 VL with L21M, G32S, R45K, I80T, W102F, G106S, I112K
notes: mouse monoclonal (hybridoma)
B13: Ab14 (antibody, V domains shown)
VH: B12 VH
VL: B11 VL with L21M, G32S, R45K, I80T, W102F, G106S, I112K
notes: mouse monoclonal (hybridoma)
B14: Ab06 (antibody, V domains shown)
VH: EVQLVASGGGLVKPGGSLKLSCAASGITFRSYAMSWVRQTPEKRLEWVATITDGGSYIFYPDNVKGRFTISGDHAKNNLYLQMSHLKSEDTALYFCVRLYYGNSFAYWGQGTLVTVSA
VL: B11 VL with S22N, L30F, G32S, R45K, I80T, I81F, D97A, Y99I, W102F, G106S
notes: mouse monoclonal (hybridoma)
B15: Ab24 (antibody, V domains shown)
VH: B3 VH with R3K
VL: B7 VL with S9T, S22T, Q44E, N83S, L93Y, D97V, S99F, F100Y, L102F
notes: mouse monoclonal (hybridoma)
B16: Ab17 (antibody, V domains shown)
VH: QVQLKESGPGLVAPSQSLSITCTVSGFSLTSYAISWVRQPPGKGLEWLGEIWTGGGTNYNSALKSRLSISKDNSKSQVFLKMNSLQTDDTARYYCGRLSYGNSLDYWGQGTTLTVSS
VL: DIVMTQSPSSLTVTAGEKVTMSCKSSQSLLNSGNQKNYLTWYQQKPGQPPKLLIYWASTRESGVPDRFTGSGSGTDFTLTVSSVQAEDLAVYYCQNNFIYPLTFGPGTKLELK
notes: mouse monoclonal (hybridoma)
B17: Ab18 (antibody, V domains shown)
VH: QVQLKESGPGLVAPSQSLSITCTVSGFSLTTYGINWVRQPPGKGLEWLGVIWGDGSTNYHSALISRLSISKDNSKSQVFLKLNSLQTDDTATYYCVKSSYYGNAMDYWGQGTSVTVSS
VL: DIVMTQSPSSLTVTAGETVTMSCKSSQSLLNSGNQKNYLTWYQQKPGQPPKLLIYWASTRESGVPDRFTGSGSGTDFTLTISSVQAEDLAVYYCQNVYSYPFTFGSGTKLEI
notes: mouse monoclonal (hybridoma)
B18: Ab25 (antibody, V domains shown)
VH: EAQLQQSGPELVKPGASVKIFCKASGYTFTDYYINWVKQSHGKSLEWIGDINPNNGGTTYNQKFKGKATLTVDKSSSTASMELRRLTSEDSSVYYCARRDAMDYWGQGTSVTVSS
VL: DIVMTQSQKFMSTTVGDRVSITCTASQNVGPAVAWYQQKPGQSPKLLIYSASRRFTGVPDRFTGSGSGTVFTLTINNVQSEDLADYFCQQYISYPLTFGAGTKLELK
notes: mouse monoclonal (hybridoma)

These binders were tested against T1, human Claudin18.1 (CLDN18.1) (human, UniProt P56856 1-261) (assay: FACS on CHOK1-18.1 cells;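 as to FACS MFI: test antibody binding to the cells detected by flow cytometry using a fluorescent dye-labelled secondary antibody, read out as median fluorescence intensity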;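 as to result: antibody binding to cells detected with a fluorescently labelled secondary antibody, read out as median fluorescence intensity (MFI) by flow cytometry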).
T1 construct: whole, on cells; also called human Claudine18.1
Protocol: (§1) The specificity and cross-reactivity of these subclones were confirmed with FACs analysis. […] Fluorescent dye-conjugated secondary antibody was used to detect the binding of the primary antibody with the cells. Median fluorescence intensity (MFI) was measured by FACs analysis.

Binder | binding result
B1 | no binding
B2 | no binding
B3 | no binding
B4 | no binding
B5 | no binding
B6 | no binding
B7 | no binding
B8 | no binding
B9 | no binding
B10 | no binding
B11 | no binding
B12 | no binding
B13 | no binding
B14 | no binding
B15 | no binding
B16 | no binding
B17 | no binding
B18 | no binding

Molecular target: T1, human Claudin18.1 (CLDN18.1)
Assay: FACS on CHOK1-18.1 cells
Remark: another data set of the same source
Protocol: as §1

Binder | FACS MFI
B1 | 95.6
B2 | 83.8
B3 | 82.3
B4 | 80.8
B5 | 80.8
B6 | 80.8
B7 | 80.8
B8 | 92.6
B9 | 101
B10 | 764
B11 | 97
B12 | 97
B13 | 97
B14 | 789
B15 | 80.8
B16 | 82.3
B17 | 79.4
B18 | 82.3

What follows are binders tested against T2, human Claudin18.2 (CLDN18.2) (human, UniProt P56856 1-261) (assay: FACS on CHOK1-18.2 cells;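 also: antibody binding to the cells detected with a fluorescently labelled secondary antibody and read out as median fluorescence intensity by flow cytometry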).
T2 construct: the cell line is named under assay; also called human Claudine18.2; hClaudin18.2
Protocol: as §1

Binder | FACS MFI
B1 | 17100
B2 | 8820
B3 | 7460
B4 | 7390
B5 | 8170
B6 | 9800
B7 | 7340
B8 | 11300
B9 | 1380
B10 | 13700
B11 | 16000
B12 | 19400
B13 | 21400
B14 | 46100
B15 | 10100
B16 | 11500
B17 | 9910
B18 | 12600
